This data set can be described thus: yeast display, Sf9 membrane polyspecificity reagent, FACS + sequencing; frameworks hold sequencing errors. Put shortly:
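Galactose induction of a Saccharomyces cerevisiae BJ5465 synthetic nanobody display library ran 36–48 hours. The cells were then stained for 1 hour at 4 °C with 10% biotinylated, detergent-solubilized Sf9 membrane reagent, pulled down on streptavidin microbeads and FACS-sorted into low and high (top ~1%) gates on expression and reagent-binding fluorescence. Labels for polyreactivity follow the gate of origin.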
For the sequence “QVQLVESGGGLVQAGGSLRLSSAASGITFVWNAMGWYRQAPGKERELVATISRGGVRTYYADSVKGRFTISRDNAKNTVYLQMNSLKQEDTAVYYCAADGSYVHWEYGYWGQGTQVTVSS”, the “polyreactivity (PSR sort gate)” value was “low polyreactivity”.

As to “QFQLVDSGGGLVQAGGSLRLSCAASGRTFWFYGMGWYRQAPGKEREFVARISGSGGSKYYADSVKGRFTITRDNAKNTVYFQMNSLKPEDTAVYYCAKDNRYPYPSGLDYWGQGTQVTVSS”, the “polyreactivity (PSR sort gate)” value was “high polyreactivity”.

As for “QVQLVESGGGLVQAGGSLRLSCAASGSIFVLNAMGWYRQAPGKERELVAVISNIGGRTYYADSVKGRFTISRDNAKNTVYLQMNSLKPEDTAVYYCIFRSPSYEYDYWGQGTQVTVSS”, the “polyreactivity (PSR sort gate)” value was “low polyreactivity”.

For the sequence “QVQLVESGGGLVQAGGSLRLSCAASGRTFTSYAMGWYRQAPGKERELVAAISGNGVTTYYADSVKGRFTISRDNAKNTLYLQINSLKPEDTAVYYCAAGQRRFGYYYWGQGTQVTVSS”, the “polyreactivity (PSR sort gate)” value is listed as “high polyreactivity”.

“QVQLVESGGGLVQAGGSLRLSCAASGFIFDYYAMGWYRQAPGKERELVAAITWSGGSTYYADSVKGRFTISRDNAKYTVFLQMNSLKPEDTAVYYCNAYNWTYCEYEYWGQGTQVTVSS”: the “polyreactivity (PSR sort gate)” value is reported as “high polyreactivity”.

On to “QVQLVESGGGLVQAGGSLRLICAASGITFSVYTMGWYRQAPGKERELVAAIDSDGITNYADSVKGRFTISRDNAKNTVYLQLNSLKPEDTAVYYCAKQSGRADGVSGFDYWGQGTQVTVSS”, for which the “polyreactivity (PSR sort gate)” value is given as “low polyreactivity”.

As for “QVQLVESGGGLVQAGGSLRLSCAASGSINYYAMGWYRQAPGKERELVAAITGSGGSTYYADSVKGRFTISRDNAKNTVYLQMNSLITEDTSVYYCAARYGYIYGPYYYWGQGTQVTVST”, the “polyreactivity (PSR sort gate)” value is “high polyreactivity”.

For “QVQLGESGGGLVQAGGSLRLSCAASGRIFQIYGMGWYRQAPGKERELVASISSGDSTNFADSVKGRFTISRDNAKNTVYLQMNSLIPEDTAVYYCAARSRRAYNYWGQGTQVTVSS”, the “polyreactivity (PSR sort gate)” value is given as “high polyreactivity”.

Turning to “QVQLVESGGGLVQAGGRLRLSCAAYGSIFMYYAMGWYRQSPVKERELVAAITRGGSTYYADSVKGRFTISRDNAKNTVYLQMNSLKPEDTAVYYCAATTFRSVGYDYWGQGTQVTVSS”, the “polyreactivity (PSR sort gate)” value is “low polyreactivity”.

As for “QVQLVESGGGLVQAGGSLRLSCAASGFIFADYTMGWYRQAPGKERELVAAITWSGDSTYYADSVKGRFTISRDNAKNTVYLQMNSLKPEDTAVYYCNAVNDWYYAYYGVTSFRSYDYWGQGTQVTVSS”, the “polyreactivity (PSR sort gate)” value was “low polyreactivity”.

“QVQLVESGGGLVQAGGSLRLSCDASGSTFYWYAMGWYRQAPGKERELVAAITYSSGRTYYADSVKGRFTISRDNAKNTVYLQMNSLKPEDTAVYYCGWSALNGYDYWGQGTQVTVSS”: the “polyreactivity (PSR sort gate)” value is “high polyreactivity”.

As to “QVQLEESGGGLVQAGGSLRLSCAASGRTFVPYAMGWYRQAPGKERELVAAINSGGSTYYADSVKGRFTISRDNAKNTVYLQMNSLKPEDTAVYYCAAEYWNSRFSYAYGYWGQGTQVTVSS”, the “polyreactivity (PSR sort gate)” value is on record as “high polyreactivity”.

For “QVQLVESGGGLVQAGGSLRLSCAASGRIFIWYAMGWYRQAPGKDRELVAAISTDGSPYYADSVKGRFTISRDNAKNTVYLQMNSLKPEDTAVYYCAAVPGYTHLWGGPFDYWGQGTQVTVSS”, the “polyreactivity (PSR sort gate)” value is given as “low polyreactivity”.

Consider “QVQLVESGGGLVQAGGSLRLSCAASGSTFYLNAMGWYRQAPGKERELVAAINGSGGSTYADSVKGRFTISRDNAKNTVYLQMKSLIQEDTAVYYCAADGSGYPGYSYPGKDYDDWGQGTQVNVSS”, for which the “polyreactivity (PSR sort gate)” value was “low polyreactivity”.

On to “QVQLVESGGGLLQAGGSLRLSCAASGRTFETNAMGWNRQAPGKQRELVASINWSGGSTYYADSVKGRFTISRDNAKNSVYLQMNSLKPEDTAVYYCAADHSYWDWWSYYYWGQGTQVTVSW”, for which the “polyreactivity (PSR sort gate)” value was “low polyreactivity”.

Regarding “QVQLVESGGGLVQAGGSLRLSCAASGRTFHNYAMGRYRQAPGKERELVAAISRGGNTYYADSVKGRFTISRDNSKNTVYLQMNSLKPEDTAVYYCAKDNHFEAYRYDYWGQGTQVTVSS”, the “polyreactivity (PSR sort gate)” value is on record as “high polyreactivity”.
